In the supplement of paper PMC7125110:
± gives the standard error. Variants at the floor of the assay were thinned out.

B1: glmS ribozyme (parent)
chain: AUAAAAGCGCCAGAACUACAGAAAUGUAGUUGACGAGGAGGAGGUUUAUCGAAUUUUCGGCGGAUGCCUCCAAA

Experiments:
Conditions in all cases: with glucosamine-6-phosphate
glucosamine-6-phosphate [1] = variants of: B1; assay: self-cleavage kobs at 640 uM GlcN6P; higher = faster cleavage; RNA array
Summary of the method: (§1)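 In situ transcription by E. coli RNA polymerase produced barcoded ribozyme variants on sequenced MiSeq chips, and a hybridised Cy3 probe tracked them at 37 °C. Glucosamine-6-phosphate was flowed in at 40 μM to 10 mM in HEPES/KCl/Mg(OAc)2 buffer. kcat and KM were taken from weighted Michaelis–Menten fits of kobs values from exponential decay fits.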

glucosamine-6-phosphate [2] = variants of: B1; assay: self-cleavage kobs at 2500 uM GlcN6P; higher = faster cleavage; RNA array
Summary of the method: as §1

glucosamine-6-phosphate [3] = variants of: B1; assay: self-cleavage kobs at 10000 uM GlcN6P; higher = faster cleavage; RNA array
Summary of the method: as §1

Variant | self-cleavage kobs at 640 uM GlcN6P (glucosamine-6-phosphate [1]) | self-cleavage kobs at 2500 uM GlcN6P (glucosamine-6-phosphate [2]) | self-cleavage kobs at 10000 uM GlcN6P (glucosamine-6-phosphate [3])
A12G G37A A48G G63C | < 1e-05 s⁻¹ |  | 
A14C A15C A39U G40U U49C | < 1e-05 s⁻¹ |  | 
C11G G35C A52U | < 1e-05 s⁻¹ |  | 
C11U A42U U55G G63U C68U | < 1e-05 s⁻¹ | < 1e-05 s⁻¹ | 
A14C U46G G66A | 0.000298 ± 5.1e-05 s⁻¹ | 0.000166 ± 3.6e-05 s⁻¹ | 
A14C C34A U46G | < 1e-05 s⁻¹ | < 1e-05 s⁻¹ | 
A15G U31A U47G | 0.000471 ± 0.00011 s⁻¹ | 0.00142 ± 0.0005 s⁻¹ | 
A14U C67U C68G | 0.000113 ± 3.4e-05 s⁻¹ |  | 
A15U A33U C70U | < 1e-05 s⁻¹ |  | 
A15U A33G G44U A48U | < 1e-05 s⁻¹ | < 1e-05 s⁻¹ | < 1e-05 s⁻¹
G13U U56C A64G | < 1e-05 s⁻¹ |  | 
G13C A14C C71U | 4.16e-05 ± 1.1e-05 s⁻¹ | 0.000105 ± 1.7e-05 s⁻¹ | 
G13A G44C U54G | < 1e-05 s⁻¹ |  | 
G13U G40U G63C | < 1e-05 s⁻¹ | < 1e-05 s⁻¹ | 
C11U G32C C50G A52U | < 1e-05 s⁻¹ |  | 
A14U G29C A48G U65A | < 1e-05 s⁻¹ |  | 
A15C G32U U55G C58G U69G | 0.000909 ± 0.00036 s⁻¹ |  | 
A14G A36C G40C G51C | < 1e-05 s⁻¹ |  | 
C11U G41C U54G G59C | < 1e-05 s⁻¹ |  | 
A14C A36G U49C | < 1e-05 s⁻¹ | < 1e-05 s⁻¹ | 
A15U G35U U46A | < 1e-05 s⁻¹ | < 1e-05 s⁻¹ | 
G13U A15G G51C | < 1e-05 s⁻¹ | < 1e-05 s⁻¹ | 

Variant | self-cleavage kobs at 640 uM GlcN6P (glucosamine-6-phosphate [1]) | self-cleavage kobs at 2500 uM GlcN6P (glucosamine-6-phosphate [2]) | self-cleavage kobs at 10000 uM GlcN6P (glucosamine-6-phosphate [3])
A14C U56G C68A | 9.34e-05 ± 3.4e-05 s⁻¹ | 8.68e-05 ± 2.2e-05 s⁻¹ | 
A14U A15G A64C | < 1e-05 s⁻¹ |  | 
A12U C58U C61G G62C A64G U65A G66U C67G U69C C70U | 7.34e-05 ± 2.4e-05 s⁻¹ | 7.58e-05 ± 1.9e-05 s⁻¹ | 
A14U U46G G60A C71A | < 1e-05 s⁻¹ |  | 
G13U C16G G29A A39G | 0.000103 ± 3.7e-05 s⁻¹ | 0.000286 ± 7.5e-05 s⁻¹ | 
G13U U30C C61A | < 1e-05 s⁻¹ |  | 
G13C A39C C61A C70U | < 1e-05 s⁻¹ |  | 
G13C G32A U45A A52U G60A G62C A64G C68U | < 1e-05 s⁻¹ | < 1e-05 s⁻¹ | 
G13U G37C U56C C67A C71U | < 1e-05 s⁻¹ |  | 
A15C C16U U45A | 0.000911 ± 0.00018 s⁻¹ | 0.00147 ± 0.00058 s⁻¹ | 
A14G G38C G44A | < 1e-05 s⁻¹ | < 1e-05 s⁻¹ | < 1e-05 s⁻¹
A12G U45C C50U | < 1e-05 s⁻¹ | < 1e-05 s⁻¹ | 
A15C C16U U56C | 7.03e-05 ± 1.8e-05 s⁻¹ | 0.000249 ± 7.3e-05 s⁻¹ | 
A15C U31C A33G G38A | < 1e-05 s⁻¹ |  | < 1e-05 s⁻¹
A12G A36C A39C C71G | < 1e-05 s⁻¹ | < 1e-05 s⁻¹ | 
C11U A48G C68U | < 1e-05 s⁻¹ |  | 
C11U U30C G43A | < 1e-05 s⁻¹ |  | 
G13C G37A G62A | < 1e-05 s⁻¹ | < 1e-05 s⁻¹ | < 1e-05 s⁻¹
A14C A36C G51U C61A G63U C67U | 8.43e-05 ± 3.9e-05 s⁻¹ | 5.16e-05 ± 1.9e-05 s⁻¹ | 
A12C G44U | 9.03e-05 ± 1.7e-05 s⁻¹ | 8.38e-05 ± 2.6e-05 s⁻¹ | 0.000382 ± 5.4e-05 s⁻¹
A12C A14G C34G G38U U49G A64G | < 1e-05 s⁻¹ | < 1e-05 s⁻¹ | 
G13A C34A C67U C70G | < 1e-05 s⁻¹ | < 1e-05 s⁻¹ | 

Variant | self-cleavage kobs at 640 uM GlcN6P (glucosamine-6-phosphate [1]) | self-cleavage kobs at 2500 uM GlcN6P (glucosamine-6-phosphate [2]) | self-cleavage kobs at 10000 uM GlcN6P (glucosamine-6-phosphate [3])
G13U U31G A48G A52U | < 1e-05 s⁻¹ |  | 
A14C G44C U55C | < 1e-05 s⁻¹ |  | 
G13C A14G A42G | 0.000198 ± 6.9e-05 s⁻¹ | 0.000379 ± 9.2e-05 s⁻¹ | 
A15U C58U U69A | 0.000113 ± 2.4e-05 s⁻¹ | 0.000115 ± 3.3e-05 s⁻¹ | 
A15U C16A C71U | 0.000111 ± 3.7e-05 s⁻¹ | 0.000598 ± 0.00019 s⁻¹ | 
C16A A36U A42G A48G G51U U54G | < 1e-05 s⁻¹ | < 1e-05 s⁻¹ | 
A12U C67G C71A | < 1e-05 s⁻¹ |  | 
A12G C34U | < 1e-05 s⁻¹ |  | < 1e-05 s⁻¹
A12G A39C A42C | < 1e-05 s⁻¹ |  | 
C11G A14U A36U U46A C61G G63A | < 1e-05 s⁻¹ | < 1e-05 s⁻¹ | 
A12U U46C A52G A53G | 0.000183 ± 4.4e-05 s⁻¹ | 0.00036 ± 8.9e-05 s⁻¹ | 
A12C A15G A39C | 5.62e-05 ± 1.6e-05 s⁻¹ | 0.000163 ± 4.9e-05 s⁻¹ | 
A12U U65C C70U | 0.000322 ± 8.6e-05 s⁻¹ |  | 
G13C A15C C61U A64U C67A | < 1e-05 s⁻¹ |  | 
A12G U30A G44A | < 1e-05 s⁻¹ |  | 
G13U A64U C70G | < 1e-05 s⁻¹ |  | 
A15C C34U G66C | < 1e-05 s⁻¹ | < 1e-05 s⁻¹ | 
C11U C16A U30A G32C U69G | 0.000926 ± 0.00019 s⁻¹ |  | 
G13C A14G U56C | 6.74e-05 ± 1.6e-05 s⁻¹ | 0.000185 ± 4.6e-05 s⁻¹ | 
A12C G29C A42C | < 1e-05 s⁻¹ |  | 
C11U G29U A52C | < 1e-05 s⁻¹ |  | 
